Results as given in PMC10573690 (International Journal of Molecular Sciences, 2023).

T1: biotinylated EMPD-characteristic peptide (Homo sapiens, synthetic peptide of the …, biotin on the C-terminal lysine (K-biotin))
T1 construct: added C-terminal lysine that carries the biotin; Held on streptavidin sensors or plates through the biotin; also called synthetic peptide ligand representing a section of the human EMPD; model peptide; source: synthetic peptide; bought: Fisher Scientific
T1 chain: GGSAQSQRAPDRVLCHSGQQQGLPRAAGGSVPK

B1: 15cl12, chimeric antibody with human constant domains (antibody, V domains shown)
VH: QIQLQQSGAELVKPGASVKLSCKASGYTFTSYDINWVRQRPERGLDWIGWIFPGDGSSKYNENFKGKATLTTDKSSNTAYIHLSRLTSEDSAVYFCARWGKTFDYWGQGTTLTVSS
VL: DIVMSQSPSSLAVSVGEKVTMSCKSSQSLLYSRDQKNYLAWFQQKPGQSPKLLIYWASARESGVPDRFTGSGSGTDFTLTITSLKTEDLAVYYCQQFYNYPRTFGGGTKLEIK
B2: 15cl12_L328C coupled with MC-Val-Cit-PAB-MMAE (antibody-drug conjugate) (antibody, V domains shown)
VH: B1 VH
VL: B1 VL
B3: quilizumab (antibody, V domains shown)
VH: EVQLVESGGGLVQPGGSLRLSCAASGFTFSDYGIAWVRQAPGKGLEWVAFISDLAYTIYYADTVTGRFTISRDNSKNTLYLQMNSLRAEDTAVYYCARDNWDAMDYWGQGTLVTVSS
VL: DIQMTQSPSSLSASVGDRVTITCRSSQSLVHNNANTYLHWYQQKPGKAPKLLIYKVSNRFSGVPSRFSGSGSGTDFTLTISSLQPEDFATYYCSQNTLVPWTFGQGTKVEIK
B4: ligelizumab (antibody, V domains shown)
VH: QVQLVQSGAEVMKPGSSVKVSCKASGYTFSWYWLEWVRQAPGHGLEWMGEIDPGTFTTNYNEKFKARVTFTADTSTSTAYMELSSLRSEDTAVYYCARFSHFSGSNYDYFDYWGQGTLVTVSS
VL: EIVMTQSPATLSVSPGERATLSCRASQSIGTNIHWYQQKPGQAPRLLIYYASESISGIPARFSGSGSGTEFTLTISSLQSEDFAVYYCQQSWSWPTTFGGGTKVEIK
notes: whole heavy chain, IgG1 format; whole light chain; IgG1; made in house; source: HEK293-6E, transfected, purified from supernatant (Protein A)

Tests used:
[1] = target: T1, biotinylated EMPD-characteristic peptide; assay: BLI; biotinylated EMPD peptide on streptavidin sensors (5 µg/mL); antibodies in two-fold dilutions from 250 nM; PBS with 1× Kinetics buffer, 25 °C; steady state value; conditions: both partners purified
[2] = target: T2, IgE-Fc-B-cell receptor construct (3×FLAG tag-Cε2-Cε3-Cε4-EMPD-transmembrane-intracellular domain) on Edox … (Homo sapiens, UniProt P01854, strain); assay: flow cytometry on cells; doxycycline-induced Edox cells, antibodies in graded concentrations, 30 min on ice in 2% BSA-PBS; detection with anti-human kappa light chain-FITC; conditions: one partner purified
T2 construct: Species is said only of the EMPD in general ('human EMPD'); also called EMPD-containing Fcε construct; Fcε; not shown: 3×FLAG, N-terminal, kept
Target sequence in this assay (P01854 429-546, change not shown): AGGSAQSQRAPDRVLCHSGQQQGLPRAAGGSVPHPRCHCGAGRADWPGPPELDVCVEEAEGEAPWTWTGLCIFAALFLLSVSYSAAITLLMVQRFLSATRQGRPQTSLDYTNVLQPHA

[3] = target: T2, IgE-Fc-B-cell receptor construct …; assay: cell-based or functional assay
Target sequence in this assay (P01854 whole entry, looked up, change not shown, the tested form may be a part): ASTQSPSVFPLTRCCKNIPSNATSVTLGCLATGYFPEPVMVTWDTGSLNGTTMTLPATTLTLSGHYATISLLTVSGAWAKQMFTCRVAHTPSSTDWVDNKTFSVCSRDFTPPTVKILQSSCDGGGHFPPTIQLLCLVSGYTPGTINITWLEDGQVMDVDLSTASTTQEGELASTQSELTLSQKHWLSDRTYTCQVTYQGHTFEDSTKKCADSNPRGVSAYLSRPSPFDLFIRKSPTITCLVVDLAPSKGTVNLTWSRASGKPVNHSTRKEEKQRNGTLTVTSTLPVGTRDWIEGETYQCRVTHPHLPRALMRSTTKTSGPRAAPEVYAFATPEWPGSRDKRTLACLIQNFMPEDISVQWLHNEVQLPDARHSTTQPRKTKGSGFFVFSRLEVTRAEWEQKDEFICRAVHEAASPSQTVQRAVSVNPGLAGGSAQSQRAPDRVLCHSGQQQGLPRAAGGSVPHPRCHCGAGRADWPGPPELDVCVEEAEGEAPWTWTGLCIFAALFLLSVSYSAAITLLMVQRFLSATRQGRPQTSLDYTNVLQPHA

[4] = target: T1, biotinylated EMPD-characteristic peptide; assay: ELISA; biotinylated EMPD peptide on streptavidin plate (30 nM); antibodies in 3-fold dilutions from 45 nM in 2% BSA-PBS, RT; detection with anti-human kappa chain-HRP; conditions: both partners purified

Row | Binder | Kd [1] [nM] | EC50 [2] [nM] | decrease of surface Fcε (anti-FLAG staining, flow cytometry) on Edox cells after 4 h at 37 °C against incubation on ice [3] [%] | EC50 [4] [nM]
1 | B1 | 11 | 4 | > 80 | –
2 | B2 | 7.5 | ~8 | – | 0.23
3 | B3 | – | – | ~70 | –
4 | B4 | – | ~0.1 | > 80 | –
